US20220340682A1 (Sanofi, published 2022)
Where a chain is given by its changes, count along the chain named. Names may count otherwise.

Key:
[1] = biological target: T1, human CEACAM5 expressed on the surface of tumor cells (human, UniProt P06731 35-685); assay: cell-based or functional assay
T1 sequence: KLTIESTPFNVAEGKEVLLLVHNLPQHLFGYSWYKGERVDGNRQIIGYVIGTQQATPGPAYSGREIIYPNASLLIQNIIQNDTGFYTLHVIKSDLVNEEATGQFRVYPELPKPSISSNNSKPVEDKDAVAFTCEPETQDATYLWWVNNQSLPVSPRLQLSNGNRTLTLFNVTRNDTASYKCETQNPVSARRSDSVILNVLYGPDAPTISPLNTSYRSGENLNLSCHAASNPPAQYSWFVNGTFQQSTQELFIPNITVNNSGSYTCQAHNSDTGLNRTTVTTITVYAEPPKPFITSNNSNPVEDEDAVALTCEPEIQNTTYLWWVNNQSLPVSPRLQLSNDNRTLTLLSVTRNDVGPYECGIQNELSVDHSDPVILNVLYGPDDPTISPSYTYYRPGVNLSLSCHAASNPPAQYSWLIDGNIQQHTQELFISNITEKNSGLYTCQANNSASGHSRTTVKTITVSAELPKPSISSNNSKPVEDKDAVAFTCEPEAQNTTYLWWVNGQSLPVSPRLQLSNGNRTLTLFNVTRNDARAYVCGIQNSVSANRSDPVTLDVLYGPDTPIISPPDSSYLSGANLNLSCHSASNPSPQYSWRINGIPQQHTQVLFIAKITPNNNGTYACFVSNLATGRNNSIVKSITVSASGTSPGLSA

[2] = biological target: T2, hCEACAM5, human CEACAM5 ECD (35-685) (human, UniProt P06731 35-685); assay: ELISA, chimeric mAb
T2 construct: produced in HEK293; also called human CEACAM5 protein; human CEACAM5 extracellular domain
T2 sequence: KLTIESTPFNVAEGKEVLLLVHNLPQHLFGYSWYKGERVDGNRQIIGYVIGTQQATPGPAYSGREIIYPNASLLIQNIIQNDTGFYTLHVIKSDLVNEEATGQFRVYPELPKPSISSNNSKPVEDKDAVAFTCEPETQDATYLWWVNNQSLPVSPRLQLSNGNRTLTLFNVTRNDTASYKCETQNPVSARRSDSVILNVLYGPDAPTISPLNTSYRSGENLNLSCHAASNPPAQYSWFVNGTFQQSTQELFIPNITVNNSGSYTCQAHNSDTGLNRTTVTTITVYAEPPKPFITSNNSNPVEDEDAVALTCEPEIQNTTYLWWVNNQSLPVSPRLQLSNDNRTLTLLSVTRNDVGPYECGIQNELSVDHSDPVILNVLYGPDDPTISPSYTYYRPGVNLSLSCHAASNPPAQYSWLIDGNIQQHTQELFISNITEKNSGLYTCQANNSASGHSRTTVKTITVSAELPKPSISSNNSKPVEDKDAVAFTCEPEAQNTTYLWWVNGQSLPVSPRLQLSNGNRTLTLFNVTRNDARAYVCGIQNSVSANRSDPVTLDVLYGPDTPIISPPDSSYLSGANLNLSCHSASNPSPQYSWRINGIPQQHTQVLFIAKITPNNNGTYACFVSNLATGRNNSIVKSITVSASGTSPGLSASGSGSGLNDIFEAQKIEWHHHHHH

[3] = biological target: T3, cCEACAM5, M. fascicularis CEACAM5 ECD (35-688) (Macaca fascicularis); assay: ELISA, chimeric mAb
T3 construct: ECD followed by a 24 amino acid extension containing a His-Tag; also called cynomolgus CEACAM5; monkey CEACAM5
T3 chain: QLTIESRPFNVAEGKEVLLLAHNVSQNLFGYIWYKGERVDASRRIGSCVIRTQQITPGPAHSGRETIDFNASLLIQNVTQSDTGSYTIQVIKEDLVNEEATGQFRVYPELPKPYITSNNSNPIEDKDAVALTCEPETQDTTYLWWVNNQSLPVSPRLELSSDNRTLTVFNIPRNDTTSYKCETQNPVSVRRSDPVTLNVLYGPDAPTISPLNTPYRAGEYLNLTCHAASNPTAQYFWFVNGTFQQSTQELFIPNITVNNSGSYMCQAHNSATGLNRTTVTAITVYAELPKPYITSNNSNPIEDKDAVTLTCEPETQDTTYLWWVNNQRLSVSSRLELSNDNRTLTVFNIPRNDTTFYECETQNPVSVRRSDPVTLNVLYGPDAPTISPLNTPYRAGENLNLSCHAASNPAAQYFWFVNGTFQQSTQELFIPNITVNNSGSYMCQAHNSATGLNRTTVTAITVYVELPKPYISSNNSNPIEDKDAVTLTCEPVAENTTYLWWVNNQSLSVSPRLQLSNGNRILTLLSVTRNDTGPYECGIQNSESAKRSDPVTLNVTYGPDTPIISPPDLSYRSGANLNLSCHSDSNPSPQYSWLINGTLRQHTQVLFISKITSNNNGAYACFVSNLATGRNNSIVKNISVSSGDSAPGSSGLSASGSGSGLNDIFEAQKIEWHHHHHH

[4] = biological target: T2, hCEACAM5, human CEACAM5 ECD (35-685); assay: ELISA, coated CEACAM5
Procedure: (§1) All CEACAM5-specific mAbs were assessed for their ability to bind human and primate CEACAM5 protein by ELISA. Plates were coated with human or primate CEACAM5 protein, anti-hCEACAM5 mAbs were added to the plate and detected with rabbit anti-mouse IgG conjugated with horseradish peroxidase (Sigma; # A9044). The antibody binding was visualized by adding TMB-H2O2 buffer and read at a wavelength of 450 nm.

[5] = biological target: T3, cCEACAM5, M. fascicularis CEACAM5 ECD …; assay: ELISA, coated CEACAM5
Procedure: as §1

[6] = biological target: T1, human CEACAM5 expressed on the surface …; assay: flow cytometry on CR-IGR-034P primary colon tumor cells
Procedure: (§2) Advanced human primary colon tumor CR-IGR-034P (Julien et al., Clin Cancer Res Oct. 1, 2012 18:5314-5328) was obtained from Patient-derived xenograft in mice. Tumor CR-IGR-034P was enzymatically dissociated using collagenase Type IV (Invitrogen; #17104-019) and deoxyribonuclease I (Invitrogen; #18047-019) for 1 h at […], Cell viability was estimated by Viacount application using Guava® easyCyte™ 8HT Flow Cytometry System. […] 100 μL/well of goat anti-mouse IgG conjugated with Alexa647 (Invitrogen; # A2135) or goat anti-human IgG conjugated with Alexa488 (Invitrogen; # A11013) was added for 45 min at 4° C. and washed three times with PBS 1% BSA. The antibody binding was evaluated after centrifugation and resuspension of cells by adding 200 pliwell PBS 1% BSA and read using Guava® easyCyte™ 8HT Flow Cytometry System. Apparent KD and EC50 values were estimated using BIOST@T-BINDING and BIOST@T-SPEED softwares, respectively.

[7] = biological target: T1, human CEACAM5 expressed on the surface …; assay: apparent KD, flow cytometry on CR-IGR-034P primary colon tumor cells
Procedure: as §2

B1: MAb5-SPDB-DM4 (other)
VH: ELQLVESGGVLVKPGGSLKLSCAASGFAFSSYDMSWVRQTPEKRLEWVTYINSGGGITYYPDTVKGRFTISRDNARNTLYLQMSSLKSEDTAIYYCTAHYFGSSGPFAYWGQGTLVTVSA
VL: DIQMTQSPASLSASVGETVTITCRASENIYSYLAWYQQKQGKSPQLLVYNAKTLTEGVPSRFSGSGSGTQFSLKINSLQPEDFGSYYCQHHYGTPFTFGSGTKLEIK
modifications: maytansinoid DM4 conjugated through SPDB linker; attachment residues not stated
With B1 the “Cytotoxic activity IC50 (nM) on MKN45 cells” value (from here on “Cytotoxic activity IC50 (nM)”) [1] was 0.24 nM.

B2: MAb1-SPDB-DM4 (other)
VH: EVMLVESGGGLVKPGGSLKLSCAASGFTFSSYAMSWVRQTPEKRLEWVATISSGGSYIYYLDSVKGRFTISRDNAKNTLYLQMSSLRSEDTAMYYCARPAYYGNPAMDYWGQGTSVTVSS
VL: DILMTQSQKFMSTSVGDRVSVTCKASQNVGTNVAWYQQKPGQSPKPLIYSASYRYSGVPDRFTGSGSGTDFTLTISNVQSEDLAEYFCQQYNSYPLYTFGGGTKLEIK
modifications: maytansinoid DM4 conjugated through SPDB linker; attachment residues not stated
With B2 the “Cytotoxic activity IC50 (nM)” value [1] was 0.89 nM.

B3: MAb2-SPDB-DM4 (other)
VH: EVQLQESGGVLVKPGGSLKLSCAASGFVFSSYDMSWVRQTPEKRLEWVAYISSGGGITYFPDTVQGRFTVSRDNAKNTLYLQMNSLKSEDTAIYYCAAHYFGSSGPFAYWGQGTLVTVSA
VL: B1 VL with Y30F, A51T, T55A
modifications: maytansinoid DM4 conjugated through SPDB linker; attachment residues not stated
With B3 the “Cytotoxic activity IC50 (nM)” value [1] was 0.14 nM.

B4: MAb3-SPDB-DM4 (other)
VH: EVKLVESGGGLVKPGGSLTLPCAASGFTFSRYAMSWVRQTPEKRLEWVASISSGGDTYYPDSVKGRFTVSRDNARNILFLQMSSLRSEDTGMYYCARVNYYDSSFLDWWGQGTTLTVSS
VL: B2 VL with L3V, K9R, S14L, V15E, P46A, S93N
modifications: maytansinoid DM4 conjugated through SPDB linker; attachment residues not stated
For B4, the “Cytotoxic activity IC50 (nM)” value [1] was 0.53 nM.

B5: MAb4-SPDB-DM4 (other)
VH: EVQLVESGGGLVKPGGSLKLSCAASGFTFSSYDMSWVRQTPEKRLEWVAFISSYGGRTYYADTVKGRFTISRDNAKNTLYLQMSSLKSEDTAMFYCAAHYFGTSGPFAYWGQGTLVTVSA
VL: B1 VL with L33F, T53I, T55A, S85T, T94I, I106L
modifications: maytansinoid DM4 conjugated through SPDB linker; attachment residues not stated
B5 was tested, and the “Cytotoxic activity IC50 (nM)” value [1] was 0.96 nM.

B6: chMab2K52R (antibody, human IgG1, kappa, V domains shown)
VH: B3 VH
VL: DIQMTQSPASLSASVGETVTITCRASENIFSYLAWYQQKQGKSPQLLVYNTRTLAEGVPSRFSGSGSGTQFSLKINSLQPEDFGSYYCQHHYGTPFTFGSGTKLEIKR
notes: Chimeric MAb2 with K52R in CDR2-L
In the case of B6, the EC50 [2] is reported as 0.11 nM and the EC50 [3] is reported as 0.15 nM.

B7: antibody MAb2 (antibody, mouse IgG1, V domains shown)
VH: B3 VH
VL: B1 VL with Y30F, A51T, T55A
notes: Murine IgG1, kappa; Rows are tied to the label as printed
For B7, the EC50 [4] was 0.14 nM, the EC50 [5] was 0.07 nM and the “Ratio c/h (EC50 on cCEACAM5 against EC50 on hCEACAM5)” value [5] was 0.5. For the same binder, the EC50 [6] was 0.53 nM and the Kd [7] was 0.38 nM.

B8: chMAb1 (antibody, human IgG1, kappa, V domains shown)
VH: B2 VH
VL: DILMTQSQKFMSTSVGDRVSVTCKASQNVGTNVAWYQQKPGQSPKPLIYSASYRYSGVPDRFTGSGSGTDFTLTISNVQSEDLAEYFCQQYNSYPLYTFGGGTKLEIKR
notes: Chimeric, human IgG1 / Ckappa
With B8 the EC50 [2] was 0.51 nM and the EC50 [3] was 1.57 nM.

B9: chMAb4 (antibody, human IgG1, kappa, V domains shown)
VH: B5 VH
VL: B6 VL with F30Y, L33F, T51A, R52K, T53I, S85T, T94I, I106L
notes: Chimeric, human IgG1 / Ckappa
With B9 the EC50 [2] was 0.14 nM and the EC50 [3] was 0.12 nM.

B10: chMAb5 (antibody, human IgG1, kappa, V domains shown)
VH: B1 VH
VL: B6 VL with F30Y, T51A, R52K, A55T
notes: Chimeric, human IgG1 / Ckappa
For B10, the EC50 [2] was 0.18 nM and the EC50 [3] was 0.13 nM.
